Measured values taken from article PMC11867700, “TANGO2 is an acyl-CoA binding protein” (The Journal of Cell Biology, 2025).

Molecular target: the molecule itself
Assay: mass photometry; purified TANGO2.Flag; mass distribution; conditions not described

B1: TANGO2 isoform 1-Flag (TANGO2.Iso1-Flag), purified (natural protein, human, UniProt Q6ICL3-1 1-276, looked up)
chain: MCIIFFKFDPRPVSKNAYRLILAANRDEFYSRPSKLADFWGNNNEILSGLDMEEGKEGGTWLGISTRGKLAALTNYLQPQLDWQARGRGELVTHFLTTDVDSLSYLKKVSMEGHLYNGFNLIAADLSTAKGDVICYYGNRGEPDPIVLTPGTYGLSNALLETPWRKLCFGKQLFLEAVERSQALPKDVLIASLLDVLNNEEAQLPDPAIEDQGGEYVQPMLSKYAAVCVRCPGYGTRTNTIILVDADGHVTFTERSMMDKDLSHWETRTYEFTLQS
notes: TANGO2 isoform 1, human, UniProt Q6ICL3-1; C-terminal in-frame fusion with the Flag peptide; also called TANGO2.Flag; purified TANGO2
binding result: binds
